{"source": "patent US20250346646A1", "about": "“COMPOUNDS USEFUL TO TREAT METABOLIC DISORDERS” (President and Fellows of Harvard College, priority 2016, published 2025)", "molecules": {"B1": {"name": "CA33: low-affinity anti-aP2 monoclonal antibody, rabbit-mouse hybrid, produced and purified by UCB; VL Seq. ID 28, VH Seq. ID 41 (antibody, V domains shown)", "VH": "QSVEESGGRLVTPGTPLTLTCTVSGFSLSTYYMSWVRQAPGKGLEWIGIIYPSGSTYCASWAKGRFTISKASTTVDLKITSPTTEDTATYFCARPDNDGTSGYLSGFGLWGQGTLVTVSS", "VL": "DVVMTQTPASVSEPVGGTVTIKCQASEDISRYLVWYQQKPGQPPKRLIYKASTLASGVPSRFKGSGSGTDFTLTISDLECDDAATYYCQCTYGTYAGSFFYSFGGGTEVVVE", "modifications": "Rabbit Ab 909 VH region; Rabbit Ab 909 VL-region"}}, "key": {"[1]": {"target": "human glucagon receptor (Homo sapiens, UniProt P47871)", "sequence (P47871 26-477)": "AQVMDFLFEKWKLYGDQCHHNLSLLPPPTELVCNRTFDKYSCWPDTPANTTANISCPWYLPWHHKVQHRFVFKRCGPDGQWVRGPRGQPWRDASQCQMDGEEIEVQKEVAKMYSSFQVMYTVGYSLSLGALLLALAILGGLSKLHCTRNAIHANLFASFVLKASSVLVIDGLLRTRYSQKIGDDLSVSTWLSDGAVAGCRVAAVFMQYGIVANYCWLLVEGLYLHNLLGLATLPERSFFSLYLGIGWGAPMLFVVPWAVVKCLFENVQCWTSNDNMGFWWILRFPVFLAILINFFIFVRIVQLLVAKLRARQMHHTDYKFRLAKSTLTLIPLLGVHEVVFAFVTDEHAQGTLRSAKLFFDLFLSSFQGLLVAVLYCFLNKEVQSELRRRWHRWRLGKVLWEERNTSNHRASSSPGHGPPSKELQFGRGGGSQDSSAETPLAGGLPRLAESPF", "experiment": "cAMP-response element luciferase reporter in CHO-K1 cells expressing human GCGR-GFP", "assay_type": "cell-based", "conditions": "1 ug/ml aP2, 25 nM glucagon, 20 μg/ml antibody; 4 hours post stimulation", "description": "Bar graphs represent mean±standard deviation (s.d.), n=4-5 per group. *P<0.05, **P<0.01, ***P≤0.001, ****P≤0.0001, ns P>0.05. Multiple group comparisons were done using one-way ANOVA statistics with Tukey post-test correction. Graphs show data as mean±standard error of mean (s.e.m.), analyzed using two-way ANOVA.\nDuring cloning hexahistadine and WELQ protease site was added for protein purification. Murine aP2 gene was cloned into pet21+ vector after the hexahistadine tag and TEV protease site for ease of purification.\nPlasmids were transfected using Lipofectamine (Invitrogen) according to manufacturer's instructions. Transiently transfected cells were grown in appropriate selection antibiotics where applicable for stable cell line generation. Following three passages under selection media, single cell colonies were picked and expanded for experimentation after validation."}, "[2]": {"target": "T1, Mouse aP2 (Mus musculus, UniProt P04117)", "T1 construct": "10 His-tag (N, cleaved yes); TEV protease site (N, cleaved yes); made in house; host or cells: E. coli BL21DE3", "T1 sequence (P04117 1-132)": "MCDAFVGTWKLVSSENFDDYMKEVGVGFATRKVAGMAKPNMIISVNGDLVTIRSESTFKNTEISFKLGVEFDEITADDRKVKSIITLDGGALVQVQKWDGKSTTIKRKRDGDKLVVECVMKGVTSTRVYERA", "experiment": "Biacore binding of CA33 to lipid-bound and lipid-free aP2", "description": "The affinity of anti-aP2 binding to aP2 (recombinantly generated in E. coli as described below) was determined by biomolecular interaction analysis, using a Biacore T200 system (GE Healthcare). Affinipure F(ab′)2 fragment goat anti-mouse IgG, Fc fragment specific (Jackson ImmunoResearch Lab, Inc.) in 10 mM NaAc, pH 5 buffer was immobilized on a CM5 Sensor Chip via amine coupling chemistry to a capture level between 4500-6000 response units (RU) using HBS-EP+(GE Healthcare) as the running buffer. Anti-aP2 IgG was diluted to between 1-10 μg/ml in running buffer. A 60 s injection of anti-aP2 IgG at 10 μl/min was used for capture by the immobilized anti-mouse IgG, Fc then aP2 was titrated from 25 nM to 3.13 nM over the captured anti-aP2 for 180 s at 30 μl/min followed by 300 s dissociation. The surface was regenerated by 2×60 s 40 mM HCl and 1×30 s 5 mM NaOH at 10 μl/min. The data were analyzed using Biacore T200 evaluation software (version 1.0) using the 1:1 binding model with local Rmax. For CA33, 60 s injection of the antibody at 10 μl/min was used for capture by the immobilized anti-mouse IgG, Fc then aP2 was titrated from 40 μM to 0.625 μM over the captured anti-aP2 for 180 s at 30 μl/min followed by 300 s dissociation. The surface was regenerated by 1×60 s 40 mM HCl, 1×30 s 5 mM NaOH and 1×60 s 40 mM HCl at 10 μl/min. Steady state fitting was used to determine affinity values. […]"}, "[3]": {"system": "aP2 knockout mice", "experiment": "Glucagon response of aP2 knockout mice given aP2, with or without CA33 preincubation", "assay_type": "in vivo, mouse", "conditions": "CA33 preincubated with aP2", "text": "Mouse and rabbit-mouse hybrid monoclonal antibodies raised against the human and mouse aP2 peptides were produced and screened. […] The systemic improvement in glucose metabolism was further verified using a glucose tolerance test (GTT)."}, "[4]": {"target": "glucagon/aP2 complex (Homo sapiens, UniProt P01275+P15090)", "sequence (P15090 whole entry)": "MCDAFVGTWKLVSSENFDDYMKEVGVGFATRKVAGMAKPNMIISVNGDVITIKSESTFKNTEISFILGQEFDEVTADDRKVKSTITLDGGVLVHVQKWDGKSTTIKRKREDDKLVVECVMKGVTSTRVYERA", "sequence (P01275 53-81 limits assumed)": "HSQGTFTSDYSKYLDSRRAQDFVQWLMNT", "experiment": "Blitz binding to tethered aP2 in glucagon plus mAb solution", "conditions": "biotinylated aP2 on streptavidin probes", "description": "Binding affinity studies were performed using a Blitz instrument (Pall Life Sciences, Menlo Park, CA). Biotinylated aP2 was attached to streptavidin probes."}, "[5]": {"target": "T2, glucagon/aP2 complex in wild-type serum (Mus musculus, UniProt P04117)", "T2 construct": "from tissue; host or cells: serum of wild-type mice", "T2 sequence (P04117 1-132)": "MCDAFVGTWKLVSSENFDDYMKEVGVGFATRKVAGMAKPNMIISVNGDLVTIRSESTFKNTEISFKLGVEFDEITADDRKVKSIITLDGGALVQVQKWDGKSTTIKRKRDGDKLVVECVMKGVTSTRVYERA", "experiment": "Co-immunoprecipitation of glucagon and aP2 from serum", "conditions": "pre-incubation of wild-type serum with antibody"}}, "data": [{"molecule": "B1", "values": [{"measurement": "Effect on glucagon potentiation by aP2 (cAMP response, luminescence)", "setting": "[1]", "value": "blocks the glucagon potentiation effect of aP2"}, {"measurement": "Kd", "setting": "[2]; De-lipidated mouse aP2, Biacore", "value": 4.7, "unit": "µM"}, {"measurement": "Kd", "setting": "[2]; Lipid-loaded mouse aP2, Biacore", "value": 9.3, "unit": "µM"}, {"measurement": "Glucagon responsiveness of aP2 knockout mice", "setting": "[3]", "value": "prevents that"}, {"measurement": "Binding to the glucagon/aP2 complex", "setting": "[4]", "value": "strong binding"}, {"measurement": "Co-immunoprecipitation of glucagon and aP2", "setting": "[5]", "value": "prevents co-immunoprecipitation"}]}]}
